Values of other authors in PMC12115143.
pKd: −log10 of the molar value.

What was measured:
[1] = biological target: AHP2 (Arabidopsis thaliana) (UniProt Q9ZNV8)
[2] = biological target: AHP1 (Arabidopsis thaliana) (UniProt Q9ZNV9)
Chain of UniProt Q9ZNV9 (Q9ZNV9 whole entry): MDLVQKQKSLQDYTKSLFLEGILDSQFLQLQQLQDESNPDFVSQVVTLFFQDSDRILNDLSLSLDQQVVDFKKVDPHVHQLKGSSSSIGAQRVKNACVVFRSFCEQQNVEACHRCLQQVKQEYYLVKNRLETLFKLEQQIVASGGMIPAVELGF

Chain of UniProt Q9ZNV8 (Q9ZNV8 whole entry): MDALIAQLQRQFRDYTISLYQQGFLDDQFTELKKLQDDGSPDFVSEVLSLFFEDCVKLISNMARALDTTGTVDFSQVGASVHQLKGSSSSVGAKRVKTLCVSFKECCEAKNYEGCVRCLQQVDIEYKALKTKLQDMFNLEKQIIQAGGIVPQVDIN

| pKd [1] | pKd [2] | Substance |
| --- | --- | --- |
| 6.52 | – | AHK1 (from UniProt Q9SXL4) |
| – | 5.82 | ETR1 (from UniProt P49333) |
